Results taken from the supplement of paper PMC11316812.
± gives the standard deviation of the averaged measurements.

How the values were obtained:
hTERT-HMEC = experiment: percentage of EdU-negative (G0-arrested) nuclei per well, 72 h; higher = more G0 arrest; settings: reference: sequence is the full UniProt precursor, the tested protein was the secreted form or ectodomain
MCF7 = experiment: as above; settings: reference: sequence is the full UniProt precursor, the tested protein was the secreted form or ectodomain
[1] = protein concentration 0.0225 µM
[2] = protein concentration 0.0175 µM
[3] = protein concentration 0.0126825 µM
[4] = protein concentration 0.126825 µM
[5] = protein concentration 0.01625 µM
[6] = protein concentration 0.1625 µM
[7] = protein concentration 0.0155 µM
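Further: secreted proteins added to cultured cells, EdU pulse at the end, nuclei found by Hoechst imaging, EdU status from nuclear versus surrounding ring intensity ratio, PBS as neutral control.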

MQRLRWLRDWKSSGRGLTAAKEPGARSSPLQAMRILQLILLALATGLVGGETRIIKGFECKPHSQPWQAALFEKTRLLCGATLIAPRWLLTAAHCLKPRYIVHLGQHNLQKEEGCEQTRTATESFPHPGFNNSLPNKDHRNDIMLVKMASPVSITWAVRPLTLSSRCVTAGTSCLISGWGSTSSPQLRLPHTLRCANITIIEHQKCENAYPGNITDTMVCASVQEGGKDSCQGDSGGPLVCNQSLQGIISWGQDPCAITRKPGVYTKVCKYVDWIQETMKNN [Q9UBX7]
percentage of EdU-negative (hTERT-HMEC; [1]): 5.31 ± 0.64% | percentage of EdU-negative (hTERT-HMEC; protein concentration 0.225 µM): 6.15 ± 0.74% | percentage of EdU-negative (MCF7; [1]): 27.509 ± 0.019% | percentage of EdU-negative (MCF7; protein concentration 0.225 µM): 25.5 ± 1.5%

MQRVSGLLSWTLSRVLWLSGLSEPGAARQPRIMEEKALEVYDLIRTIRDPEKPNTLEELEVVSESCVEVQEINEEEYLVIIRFTPTVPHCSLATLIGLCLRVKLQRCLPFKHKLEIYISEGTHSTEEDINKQINDKERVAAAMENPNLREIVEQCVLEPD [Q9H5X1]
percentage of EdU-negative (hTERT-HMEC; [1]): 5.26 ± 0.84% | percentage of EdU-negative (hTERT-HMEC; protein concentration 0.225 µM): 5.56 ± 0.12% | percentage of EdU-negative (MCF7; [1]): 24.6 ± 0.36% | percentage of EdU-negative (MCF7; protein concentration 0.225 µM): 26.4 ± 0.66%

MQSVQSTSFCLRKQCLCLTFLLLHLLGQVAATQRCPPQCPGRCPATPPTCAPGVRAVLDGCSCCLVCARQRGESCSDLEPCDESSGLYCDRSADPSNQTGICTAVEGDNCVFDGVIYRSGEKFQPSCKFQCTCRDGQIGCVPRCQLDVLLPEPNCPAPRKVEVPGECCEKWICGPDEEDSLGGLTLAAYRPEATLGVEVSDSSVNCIEQTTEWTACSKSCGMGFSTRVTNRNRQCEMLKQTRLCMVRPCEQEPEQPTDKKGKKCLRTKKSLKAIHLQFKNCTSLHTYKPRFCGVCSDGRCCTPHNTKTIQAEFQCSPGQIVKKPVMVIGTCTCHTNCPKNNEAFLQELELKTTRGKM
percentage of EdU-negative (hTERT-HMEC; [2]): 4.53 ± 0.15% | percentage of EdU-negative (hTERT-HMEC; protein concentration 0.175 µM): 15.1 ± 2.2% | percentage of EdU-negative (MCF7; [2]): 26.6 ± 2.9% | percentage of EdU-negative (MCF7; protein concentration 0.175 µM): 26.7 ± 4.2%

MQVSKRMLAGGVRSMPSPLLACWQPILLLVLGSVLSGSATGCPPRCECSAQDRAVLCHRKRFVAVPEGIPTETRLLDLGKNRIKTLNQDEFASFPHLEELELNENIVSAVEPGAFNNLFNLRTLGLRSNRLKLIPLGVFTGLSNLTKLDISENKIVILLDYMFQDLYNLKSLEVGDNDLVYISHRAFSGLNSLEQLTLEKCNLTSIPTEALSHLHGLIVLRLRHLNINAIRDYSFKRLYRLKVLEISHWPYLDTMTPNCLYGLNLTSLSITHCNLTAVPYLAVRHLVYLRFLNLSYNPISTIEGSMLHELLRLQEIQLVGGQLAVVEPYAFRGLNYLRVLNVSGNQLTTLEESVFHSVGNLETLILDSNPLACDCRLLWVFRRRWRLNFNRQQPTCATPEFVQGKEFKDFPDVLLPNYFTCRRARIRDRKAQQVFVDEGHTVQFVCRADGDPPPAILWLSPRKHLVSAKSNGRLTVFPDGTLEVRYAQVQDNGTYLCIAANAGGNDSMPAHLHVRSYSPDWPHQPNKTFAFISNQPGEGEANSTRATVPFPFDIKTLIIATTMGFISFLGVVLFCLVLLFLWSRGKGNTKHNIEIEYVPRKSDAGISSADAPRKFNMKMI [Q96FE5]
percentage of EdU-negative (hTERT-HMEC; [3]): 4.72 ± 0.26% | percentage of EdU-negative (hTERT-HMEC; [4]): 4.37 ± 0.16% | percentage of EdU-negative (MCF7; [3]): 23.8 ± 3% | percentage of EdU-negative (MCF7; [4]): 28.9 ± 0.74%

MQVSTAALAVLLCTMALCNQFSASLAADTPTACCFSYTSRQIPQNFIADYFETSSQCSKPGVIFLTKRSRQVCADPSEEWVQKYVSDLELSA
percentage of EdU-negative (hTERT-HMEC; [5]): 4.43 ± 0.47% | percentage of EdU-negative (hTERT-HMEC; [6]): 5.62 ± 0.9% | percentage of EdU-negative (MCF7; [5]): 25.6 ± 0.31% | percentage of EdU-negative (MCF7; [6]): 25.3 ± 0.67%

MQWLRVRESPGEATGHRVTMGTAALGPVWAALLLFLLMCEIPMVELTFDRAVASGCQRCCDSEDPLDPAHVSSASSSGRPHALPEIRPYINITILKGDKGDPGPMGLPGYMGREGPQGEPGPQGSKGDKGEMGSPGAPCQKRFFAFSVGRKTALHSGEDFQTLLFERVFVNLDGCFDMATGQFAAPLRGIYFFSLNVHSWNYKETYVHIMHNQKEAVILYAQPSERSIMQSQSVMLDLAYGDRVWVRLFKRQRENAIYSNDFDTYITFSGHLIKAEDD [Q9BXI9]
percentage of EdU-negative (hTERT-HMEC; [1]): 4.57 ± 0.33% | percentage of EdU-negative (hTERT-HMEC; protein concentration 0.225 µM): 4.82 ± 1.2% | percentage of EdU-negative (MCF7; [1]): 26.9 ± 1.5% | percentage of EdU-negative (MCF7; protein concentration 0.225 µM): 29.5 ± 1.2%

MQWTSLLLLAGLFSLSQAQYEDDPHWWFHYLRSQQSTYYDPYDPYPYETYEPYPYGVDEGPAYTYGSPSPPDPRDCPQECDCPPNFPTAMYCDNRNLKYLPFVPSRMKYVYFQNNQITSIQEGVFDNATGLLWIALHGNQITSDKVGRKVFSKLRHLERLYLDHNNLTRMPGPLPRSLRELHLDHNQISRVPNNALEGLENLTALYLQHNEIQEVGSSMRGLRSLILLDLSYNHLRKVPDGLPSALEQLYMEHNNVYTVPDSYFRGAPKLLYVRLSHNSLTNNGLASNTFNSSSLLELDLSYNQLQKIPPVNTNLENLYLQGNRINEFSISSFCTVVDVVNFSKLQVLRLDGNEIKRSAMPADAPLCLRLASLIEI
percentage of EdU-negative (hTERT-HMEC; [7]): 4.701 ± 0.032% | percentage of EdU-negative (hTERT-HMEC; protein concentration 0.155 µM): 5.63 ± 0.63% | percentage of EdU-negative (MCF7; [7]): 25.8 ± 0.27% | percentage of EdU-negative (MCF7; protein concentration 0.155 µM): 30.9 ± 1.2%
